From PMC5758567 (2018)

Key:
[1] = molecular target: T1, PDE6 (lower-affinity site) (Bos taurus, UniProt P11541); experiment: activity titration
T1 chain 1: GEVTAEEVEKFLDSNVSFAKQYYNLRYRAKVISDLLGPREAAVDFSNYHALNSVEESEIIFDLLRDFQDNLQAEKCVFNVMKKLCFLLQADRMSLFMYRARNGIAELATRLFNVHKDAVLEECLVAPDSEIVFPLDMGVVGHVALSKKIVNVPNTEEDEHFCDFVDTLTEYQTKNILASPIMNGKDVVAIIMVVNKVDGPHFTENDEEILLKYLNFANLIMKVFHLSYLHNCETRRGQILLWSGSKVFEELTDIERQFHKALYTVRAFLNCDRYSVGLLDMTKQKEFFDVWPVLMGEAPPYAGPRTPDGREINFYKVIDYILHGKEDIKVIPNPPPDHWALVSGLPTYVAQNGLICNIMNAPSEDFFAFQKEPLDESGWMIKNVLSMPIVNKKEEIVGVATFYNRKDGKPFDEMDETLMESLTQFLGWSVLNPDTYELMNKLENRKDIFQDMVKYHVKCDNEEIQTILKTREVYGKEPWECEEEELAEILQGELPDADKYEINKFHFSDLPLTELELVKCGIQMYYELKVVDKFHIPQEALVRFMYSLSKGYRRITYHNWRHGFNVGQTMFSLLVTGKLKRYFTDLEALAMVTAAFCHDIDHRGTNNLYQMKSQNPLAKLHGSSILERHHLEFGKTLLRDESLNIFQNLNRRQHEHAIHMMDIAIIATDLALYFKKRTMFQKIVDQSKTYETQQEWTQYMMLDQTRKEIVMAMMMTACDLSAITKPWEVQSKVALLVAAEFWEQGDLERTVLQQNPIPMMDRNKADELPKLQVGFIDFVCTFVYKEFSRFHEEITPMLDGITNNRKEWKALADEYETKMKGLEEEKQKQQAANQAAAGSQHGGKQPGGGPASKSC
T1 chain 2: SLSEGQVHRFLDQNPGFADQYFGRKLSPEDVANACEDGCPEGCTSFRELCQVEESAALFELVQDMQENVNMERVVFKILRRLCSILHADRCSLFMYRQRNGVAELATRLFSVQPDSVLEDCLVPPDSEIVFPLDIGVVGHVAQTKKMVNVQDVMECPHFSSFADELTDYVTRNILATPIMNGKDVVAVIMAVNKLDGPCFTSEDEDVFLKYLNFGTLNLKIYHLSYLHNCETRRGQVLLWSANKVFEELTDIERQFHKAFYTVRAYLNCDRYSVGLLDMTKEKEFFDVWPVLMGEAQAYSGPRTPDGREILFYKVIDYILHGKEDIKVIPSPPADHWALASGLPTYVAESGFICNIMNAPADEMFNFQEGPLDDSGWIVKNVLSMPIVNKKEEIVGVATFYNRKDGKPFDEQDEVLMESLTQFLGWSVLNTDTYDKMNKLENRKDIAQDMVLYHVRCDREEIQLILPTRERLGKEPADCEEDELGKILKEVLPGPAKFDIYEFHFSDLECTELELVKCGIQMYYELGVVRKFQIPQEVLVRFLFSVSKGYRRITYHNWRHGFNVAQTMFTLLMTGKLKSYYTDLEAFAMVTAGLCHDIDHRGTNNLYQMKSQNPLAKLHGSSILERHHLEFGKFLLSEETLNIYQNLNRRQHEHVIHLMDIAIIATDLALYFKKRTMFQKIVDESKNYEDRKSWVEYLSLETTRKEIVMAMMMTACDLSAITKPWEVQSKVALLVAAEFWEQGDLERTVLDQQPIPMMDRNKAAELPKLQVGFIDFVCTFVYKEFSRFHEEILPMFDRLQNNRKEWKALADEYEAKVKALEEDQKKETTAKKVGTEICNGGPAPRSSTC

[2] = molecular target: T2, PDE6 (higher-affinity site) (Bos taurus, UniProt P11541); experiment: activity titration
T2 chain 1: T1 chain 1
T2 chain 2: T1 chain 2

B1: PrBP/δ (protein)
chain: MSAKDERAREILRGFKLNWMNLRDAETGKILWQGTEDLSVPGVEHEARVPKKILKCKAVSRELNFSSTEQMEKFRLEQKVYFKGQCLEEWFFEFGFVIPNSTNTWQSLIEAAPESQMMPASVLTGNVIIETKFFDDDLLVSTSRVRLFYV
Kd [1]: 700 nM | Kd [2]: 40 nM
